Read-outs that look alike come from different tables or passages of the source.
What was measured:
[1] = biological target: T1, Her2 (UniProt P04626 23-652, limits assumed); test: SPR (Biacore), ADAPT injected alone at 31.25-500 nM over immobilised Her2 (irrelevant target)
T1 construct: also called irrelevant target Her2
Method: (§1) Sensor-based binding analysis was performed using a Biacore T200 system (GE Healthcare, Stockholm, Sweden). All analyses were conducted using CM-5 sensor chips coated with the target antigen, another irrelevant antigen and HSA. One surface was left as reference. Binding analysis was performed in PBS-T at 25° C. The ADAPT variants were diluted in PBS-T to 500 nM, 250 nM, 125 nM, 62.5 nM and 31.25 nM. The samples were injected at a flow rate of 30 ul/min for 120 s followed by injection of PBS-T for 240 s to monitor the dissociation. Surfaces were regenerated with 10 mM HCl. Kinetic parameters were determined using the Biacore Insight Evaluation software, assuming a 1:1 binding.
Variants with sufficient alpha helical structure as well as monomeric elution profiles on the SEC column were further analyzed for binding towards their target protein as well as to HSA. The binding towards the target antigen used in the selection was measured by a multi-cycle analysis using SPR, showing that several binders had affinities in the μM-pM range. […] After target binding had been established, the variants were also evaluated for their ability to simultaneously bind to HSA. This was done either through an SPR capture assay or an experiment where the ADAPT was pre-incubated with saturating conditions of HSA before the binding towards the target was analyzed. […]

[2] = biological target: T2, Human Serum Albumin (human, UniProt P02768 25-609); test: SPR Biacore T200, HSA on CM5 chip, ADAPT injected, 1:1 fit
T2 construct: also called HSA
T2 sequence (P02768 25-609 limits assumed): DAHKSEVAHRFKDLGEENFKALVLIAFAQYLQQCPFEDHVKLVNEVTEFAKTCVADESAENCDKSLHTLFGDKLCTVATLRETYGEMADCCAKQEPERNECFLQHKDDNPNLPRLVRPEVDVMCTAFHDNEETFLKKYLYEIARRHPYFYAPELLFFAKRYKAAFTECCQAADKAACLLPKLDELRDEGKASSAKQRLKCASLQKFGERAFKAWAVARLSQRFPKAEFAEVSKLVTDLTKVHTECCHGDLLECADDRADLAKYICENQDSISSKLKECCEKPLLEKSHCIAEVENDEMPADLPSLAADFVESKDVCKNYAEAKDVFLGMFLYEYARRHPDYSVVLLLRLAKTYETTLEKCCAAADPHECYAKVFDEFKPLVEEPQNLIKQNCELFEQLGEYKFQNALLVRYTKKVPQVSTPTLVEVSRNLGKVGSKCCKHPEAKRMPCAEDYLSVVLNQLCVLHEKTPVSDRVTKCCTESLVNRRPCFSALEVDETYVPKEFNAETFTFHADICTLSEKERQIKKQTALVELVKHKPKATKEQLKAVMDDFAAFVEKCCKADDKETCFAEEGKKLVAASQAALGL
Method: as §1

[3] = biological target: T3, Human recombinant Insulin (human, UniProt P01308 25-54; P01308 90-110, limits assumed); test: SPR Biacore T200, target on CM5 chip, ADAPT injected, 1:1 fit
T3 construct: also called bInsulin
T3 sequence (P01308 25-54 limits assumed, chain 1 of 2): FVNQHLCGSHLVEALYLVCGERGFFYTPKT
T3 sequence (P01308 90-110 limits assumed, chain 2 of 2): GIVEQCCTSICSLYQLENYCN
Method: as §1

[4] = biological target: T2, Human Serum Albumin; test: SPR Biacore T200, HSA on CM5 chip, ADAPT injected, 1:1 fit; remark: listed apart in the source
Method: as §1

[5] = biological target: T3, Human recombinant Insulin; test: SPR Biacore T200, target on CM5 chip, ADAPT injected, 1:1 fit; remark: listed apart in the source
Method: as §1
(§2) Variants with sufficient alpha helical structure as well as monomeric elution profiles on the SEC column were further analyzed for binding towards their target protein as well as to HSA. The binding towards the target antigen used in the selection was measured by a multi-cycle analysis using SPR, showing that several binders had affinities in the μM-pM range. […] After target binding had been established, the variants were also evaluated for their ability to simultaneously bind to HSA. This was done either through an SPR capture assay or an experiment where the ADAPT was pre-incubated with saturating conditions of HSA before the binding towards the target was analyzed. […] In total, thirteen of the characterized binders from the selections towards TNFα, PSA, ANG, MYDGF and Insulin could bind both HSA and its target antigen simultaneously. FIG. 5 contains sensorgrams for the thirteen variants in the capture assay.

[6] = biological target: T4, myeloid-derived growth factor (human (produced in the Human Secretome …, UniProt Q969H8 32-173, limits assumed)); test: as above
T4 construct: also called MYDGF; bMYDGF
T4 sequence (looked up): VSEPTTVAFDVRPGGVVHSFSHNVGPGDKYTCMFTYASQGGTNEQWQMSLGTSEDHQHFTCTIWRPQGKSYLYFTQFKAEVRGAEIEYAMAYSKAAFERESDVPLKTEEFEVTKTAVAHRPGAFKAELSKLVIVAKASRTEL
Method: as §1

[7] = biological target: T4, myeloid-derived growth factor; test: as above; remark: listed apart in the source
Method: as §1, §2

Row | Binder | binding result [1] | Kd [2] | koff [2] | kon [2] | Kd [3] | koff [3] | kon [3] | Kd [4] | Kd [5] | Kd [6] | koff [6] | kon [6] | Kd [7]
1 | LAIAKAYAQYELSFYGVSDFYRELIVKAKTVEGVEALKLHILAALP (designed binder, also called INS_02) [ADAPT variant Insulin_02] | no binding (tested: 500 nM) | 1.5 nM | 0.00093 s⁻¹ | 640000 M⁻¹ s⁻¹ | 670 nM | 0.12 s⁻¹ | 180000 M⁻¹ s⁻¹ | 1.5 nM | 670 nM |  |  |  | 
2 | LWWAKVWAVAELQKYGVSDFYFKLIDKAKTVEGVEALKLHILAALP (designed binder) [ADAPT variant MYDGF_07] |  | 4.7 nM | 0.00014 s⁻¹ | 30000 M⁻¹ s⁻¹ |  |  |  | 4.7 nM |  | 230 nM | 0.082 s⁻¹ | 350000 M⁻¹ s⁻¹ | 230 nM
3 | LWWAKVSAIKELQAYGVSDFYYMLITKAKTVEGVEALKLHILAALP (designed binder) [ADAPT variant MYDGF_08] |  | 12 nM | 0.00028 s⁻¹ | 23000 M⁻¹ s⁻¹ |  |  |  | 12 nM |  | 180 nM | 0.18 s⁻¹ | 1e+06 M⁻¹ s⁻¹ | 180 nM

Reference: US20230250160A1 (HOBER BIOTECH, published 2023)
